From a protein production outcome set (Wang et al. 2014)

Assay: label from the status in PepcDB records
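Note: failed if final PepcDB status was selected cloned or expressed and not failed if soluble or beyond.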

Sequence | protein production
MEVAVEKAVAAAAAASAAASGGPSAAPSGENEAESRQGPDSERGGEAARLNLLDTCAVCHQNIQSRAPKLLPCLHSFCQRCLPAPQRYLMLPAPMLGSAETPPPVPAPGSPVSGSSPFATQVGVIRCPVCSQECAERHIIDNFFVKDTTEVPSSTVEKSNQVCTSCEDNAEANGFCVECVEWLCKTCIRAHQRVKFTKDHTVRQKEEVSPEAVGVTSQRPVFCPFHKKEQLKLYCETCDKLTCRDCQLLEHKEHRYQFIEEAFQNQKVIIDTLITKLMEKTKYIKFTGNQIQNRIIEVNQNQKQVEQDIKVAIFTLMVEINKKGKALLHQLESLAKDHRMKLMQQQQEVAGLSKQLEHVMHFSKWAVSSGSSTALLYSKRLITYRLRHLLRARCDASPVTNNTIQFHCDPSFWAQNIINLGSLVIEDKESQPQMPKQNPVVEQNSQPPSGLSSNQLSKFPTQISLAQLRLQHMQQQVMAQRQQVQRRPAPVGLPNPRMQGPIQQPSISHQQPPPRLINFQNHSPKPNGPVLPPHPQQLRYPPNQNIPRQAIKPNPLQMAFLAQQAIKQWQISSGQGTPSTTNSTSSTPSSPTITSAAGYDGKAFGSPMIDLSSPVGGSYNLPSLPDIDCSSTIMLDNIVRKDTNIDHGQPRPPSNRTVQSPNSSVPSPGLAGPVTMTSVHPPIRSPSASSVGSRGSSGSSSKPAGADSTHKVPVVMLEPIRIKQENSGPPENYDFPVVIVKQESDEESRPQNANYPRSILTSLLLNSSQSSTSEETVLRSDAPDSTGDQPGLHQDNSSNGKSEWLDPSQKSPLHVGETRKEDDPNEDWCAVCQNGGELLCCEKCPKVFHLSCHVPTLTNFPSGEWICTFCRDLSKPEVEYDCDAPSHNSEKKKTEGLVKLTPIDKRKCERLLLFLYCHEMSLAFQDPVPLTVPDYYKIIKNPMDLSTIKKRLQEDYSMYSKPEDFVADFRLIFQNCAEFNEPDSEVANAGIKLENYFEELLKNLYPEKRFPKPEFRNESEDNKFSDDSDDDFVQPRKKRLKSIEERQLLK | not failed
MEVDEDIELQKHQEQQSRKLQRFSEDNTGLMRNWNNPSSRIIRVSRASGGKDRHSKVLTSKGLRDRRIRLSVATAIQFYDLQDRLGFDQPSKAVEWLINAASDSITDLPLLNTNFDHLDQNQNQTKSACSSGTSESSLLSLSRTEIRGKARERARERTAKDRDKDLQNAHSSFTQLLTGGFDQQPSNRNWTGGSDCFNPVQLQIPNSSSQEPMNHPFSFVPDYNFGISSSSSAINGGYSSRGTLQSNSQSLFLNNNNNITQRSSISSSSSSSSPMDSQSISFFMATPPPLDHHNHQLPETFDGRLYLYYGEGNRSSDDKAKERR | failed
MEVDLSGFNIDAPRWDQCTFLGRVKHFFNITDPRTVFVSEQELDWAKSVVEKSRMGLMPPGTQVEQLLYAKKLYDSAFHPDTGEKMNVIGRMSFQVPGGMIITGFMLQFYRTMPAVVFWQWVNQSFNALVNYTNRNAVSPTSVR | failed
MEVERLSLKEFCDMVAERKPTPGGGAVGSVVGAMACALAEMVANFTRKKKGYEDVEPEMERIVEAMEEARLKLFDLAKKDMEAFEKVMKAYKSSEGELQNALKEAASVPMDVIRVMKDLAHELEKLAEFGNKNLASDTLNAADLCHAVFQVEKVNVLINLKEISDETFRKNMLEELEEQEAQIEGCYQRVKKMLEGIVWSSK | not failed
MEVIREQEFVNQYHYDARNLEWEEENGTPKTNFEVTFQLANRDEAAKVTSIVAVLQFVIVRDEFVISGVISQMAHIQGRLINEPSEFSQDEVENLAAPLLEIVKRLTYEVTEIALDRPGVTLEFNS | not failed
MEVKMPFVVFVKRSVRFPGKHSYMIGGKSLLEIIVSKLSNIGKVYVFTKDKDIICNGCSIEFDTTNGIITDSVLAAIDKFGTFFAVAGDMPLIKPELVSKMLSQYKGSPLFPRHMDGMLEPLFGIYTEDLYNALKEYLDKGGESLHAFLLTQPLQYYDIGSDDEVNFININYKSDIEKYRDLLVQLLEHHHHHH | not failed
MEVKYLKDSEFLVLLLITTFVVITNVYFIAWDDSPQSWDPALHLTYSFVYFNLIKSLQFSEIVKVSNYYPPFFYLSSTPLYFLFGFSEDIAILTNLIYYFILIYSVFQIAKIMKDRNAGVISAVIISAFPALIKFQRVYMIDFALLSLTAFAILLYLRSEDFRNLKYSVLFGIVFGIAELTKWNAFVYIIPSIFALFLVNYFMRCPYCHQIVKNGWKVGYRRFCSKKHLKLYEKSAKTNNTMLNFAISLFVAFLFAAWWYLPNLSTVIMRLTYFANIGGKEGDPAFLTIQGWIYYANSILDAVGAVFLILFAVSIYYLYKNNRYLFLGLLTPIALIYIILTLLSNKDPRYIMPVLPFVAISIGVFVSSLANRKYSTILTFIILLFGLLNISALTFGQPDIDNKILPNPEHPKKEDWKIYALLEAIKESGGEGKIVVVLPDHPYLNGQSLNFYRLKEGYKFAIYNGVYIGYEAFVHNFDKITYIILIEPREHKGVYGDIEKKLYEFFYERKDNFEVVKVFDLPDNSKLYIYKRT | failed
MEVMRGVRVIEGMNGGRFPYCNVVVVGDVVIDAGAGLEVMRKVNASLLVLSHLHPDHSSGAWLFKDVLAPAEGRITLDTLARRFVAPDLVESWKRFISAATGLREFECERYEEGVVVKEPEIVAVPVKGHTMDHHVFLIEQKVLFGADVDLTSFGPFYGNPEADPYLFEREMDKLLDIDFEIFVSAHSKPVFGKEEAEGRILEFKRKIKEREEIILSLLEEPKSLDELVELSPIYGRKPYAKEILDFFERVMIEKHIEKLEMEGRVRKEDGKYVRV | failed
MEVPMDCPGCENKVRKALEKMNGVHDVQIDIKQQRVTVTGSAEQKKVLKVARNVTKRDICLWSYPYHPESNGYNDRYFKKKFRKRINMSVNGEKVSSYNYHKHGYHGHEHGYYQERPYSGLINPSASSMFSEENPHFCSIM | failed
MEVRGYKTEVALGKSSNSLLAGGLERRWQRLSGGCLGLLLMLPAVAAAAVYVPNAGQAMRDIQATQPALPEQPAPELDLPAKPPSAPAQAPDTSGIRLQVNDFVIVGNQVFSNETLQALLADLKGQELDLNQLRAAAERLTTYYQNQGYMLARAFLPAQDIEDGVVRIEVMEGRYGRIQVNNQSRALNSVITGPLSSLHSDTAVRSEDLERSLLLLSDLPGVRVKGTLSAGEQRGTTDLLVNAQPGPWASGTLEADNFGGYYTGEYRLGGSLNLNNPLRLGDQFNLRLLGSDEDQRYYRAAYKLPLGPWSTSVGVAYSRMNYELSRDFEVLEAHGQASIGSVFITQPLIRSRTFDLSAQLQYEDKRLRDDIDLFEVSSQKHVELWSLSLNGNSQDSLLGGGQNFFYLTYGSGRLSIDDPMDQWRDHFTAGTNGGFQKLNLNAARLQYLSPRFQLYGQFNGQWSSTNLDSSEKFGIGGPFDVRAYPQGTSSGDQGWQASLELRFLLAPRWQLKAFVDHGAVQVNKSPWIHDENRRQLSGAGVGASWSGPSQQISVTSAWALDNNQEGSGPERTPRIWASATQYF | failed
MEVSKIRIHDLPEEERPRERLIKNGPESLSNAELLGIVLRTGSREENVISLCSRILMEYNIKQLSLANVSKLMQVNGIGKAKAAQIAAVFELARRLETFVEEPKRKISSPKDVYTLMYPKMREQKKEKFITLYLDTKNQILKEEVVSIGSLNASIVHPREVFKSALMESSASVIMVHNHPSGDPSPSREDIMVTEKLVEGGKLLGIDILDHIIIGDGRYVSLKDEGFVK | not failed
MEVSSFSTVPRYCNSRSFVPELSRFRGFKVHLWDQSLVPLHFSIRKRKNTPRYLISCSQKKDVTVVDGSCMDEIYDKLAERLVPTAAAMFSPNLKRLVGLAGPPGAGKSTVANEVVRRVNKLWPQKAASFDAEVNPPDVAIVLPMDGFHLYRSQLDAMEDPKEAHARRGAPWTFDPALLLNCLKKLKNEGSVYVPSFDHGVGDPVEDDIFVSLQHKVVIVEGNYILLEEGSWKDISDMFDEKWFIDVNLDTAMQRVENRHISTGKPPDVAKWRVDYNDRPNAELIIKSKTNADLLIRSMNI | failed
MEVVVVGDAQAMAGRVPTVMHVRCPDRLREGVYRQVLELLTDLSPVVQALPPTAALVELKGALRYHGSEVHRLGEVLRVRTLSRLGVDVRVGIGPSITIAATASAQVPLPGGVLTVAPDDVTDWLAPLPGEALHGLGPRQAGALHEYGIHTVGLLAAVSPETVQRLLGGKAGRLAADRARGRDPRPVVPRALPAAATVRMRFDRHVLDGADVRAALLDLVVQLGRLLRRRGQAARAVSLTLQFAGGGSWEKSRRLPEPSAHDEDLRTMAYRLIDAAGLQRGRLTGLFLKADDLVDADRVAQQISLDQAREARLVAEATVDRVRDKFGPGVIGPAATARRAS | failed
MEVYTTENEQVDVLRRFLAENGKALVVGVVLGVGALVGWRFWQSHQNDSVQAASASYQQVTEQLAEGKAEAIASTEKFTAENKNTYGALASLELARHYVDQKDFAKAVQQLVQAQSQTKDADLLAVVNLRLARVQLQENKADDALKTLDAIKLEGWASQAAEVRGDILASKGDNQAARDAYNKGLSSNPSQAQQALLRMKLNNLSS | failed
MEWGGLDERQICWQVNGRGGQGLAGCSFLRGVRKRSRPPRLLPSRPPAAMSTFERHIIKRLLKGFVLFVGALLVFFIVLHWVEYSDDFLDGGATIWEVFTVFYPNYVPEIIRLTSPLALFLSCIYLTGTLAQELQLVALQTSGVSLYQLMRPYLGVGLLVTVFMFGFNGWVVPKTNEVVVRYENEYLPGNQKSVQTSEIHRRNGPNSILSVGYYDADRERAHTVSLQQLAGDARLARRVDANRMEWDDSLEVWRLDDVTRRTFVKGETQRKRTIASLDTTLQVYPRDLARSKNDVAAMTIPAAAEYLAALRRSGVGGLTRPLVAYYNKFAYPFANLLLVLIGVPIASTRRRGGQAVRFAIGLLIAFVYLSVQKLAEPLGYAGTLSPAWTAWLPHLTFAVVALLVLWWARK | failed
MEWKLERTAPRRVRTEEEMLWESIMRVLSKDLKQKRSQDSANVLDSVNATYSDFKSNFAKRLSAEVPVASSPITTRWQQSQTRALSSDSFGEEQSTTYLPEASGSVLKTPPEKETLTLGSCKEQLKTPSKGISETSNSALHFCKAPHAMDRDWKESVASKGQKCLKQLFVTQNVVQQANGKMQLCEQSECVWKGCKDGVRDESFHLKSSGDINDSILQPEVKIHITGLRNDYYLNILDWSFQNLVAIALGSAVYIWNGENHNGIENIDLSLTCNYISSVSWIKEGTCLAVGTSEGEVQLWDVVTKKRLRNMLGHLSVVGALSWNHFILSSGSRLGRVYHHDVRVAQHHVGTLRHKQAVCALKWSPDGRLLSSGCSDGLLTIWPHDPGASAQGQPLKVITQSTAVKAMDWCPWQSGVLAIGGGMKDGRLHILDINAGKSIQTPSTNSQICSLIWLPKTKEIATGQGTPKNDVTVWTCPTVSRSGGFFGHRGRVLHLALSPDQTWVFSAAADGTASVWNCY | failed
MEWLEQLLGKEWSLVPAGGVTGDAYIAQNGQQKLFLKRNTSPFLAVLSAEGIVPKLLWTRRVTNGDVISAQKWLPGQKLEPEDMKLERVAKLLKKIHSSKALVQMIQRLGKQPLHAQELLQQLQLVLRGDIRDEETIQQGLQYLMDSLKDIEYNEFVVCHCDVNHNNWLLSDEDELFLIDWDGAVIADPALDLGMLLYWYIPRQEWSEWLGYYDIEMDESLLKRMRWYVIAQTILSIQWHTTKKQQAEAEYWHQYLQQLLASE | failed
MEYALLQHYWWFLVSLLGALLVFLLFVQGGQSFLFSLGKDELTQKMMVNSTGRKWEFTFTTLVTFGGALFASFPLFYSTSFGGAYWVWMLILFCFIIQAVSYEYQSKHGNVWGRKTYQILLFINGVLAPVLLGTAVSTFFTGSSFVVNKMAMFDLSGGNQIVSAWQPFNGWQLRGLEAVLNLWNVVLGLAVFFLARVSALLYFINNIDDESLYAAAKRRLWANTVAFLIFFLAYIAFLLTTEGFAVNPVSKEVYMEPYKYLYNFLDMPAVLAVFLLGVILVLGGIGLTLLRKGFKRGIWLHGTGTVLTVLALLLVAGWNDTSWYPSTYDLQSSLTIENASSSHFTLKVMSYVSLLIPFVLAYIFYAWRALDIRKITKKEMEQDDHVY | failed
MFCEKAMELIRELHRAPEGQLPAFNEDGLRQVLEEMKALYEQNQSDVNEAKSGGRSDLIPTIKFRHCSLLRNRRCTVAYLYDRLLRIRALRWEYGSILPNALRFHMAAEEMEWFNNYKRSLATYMRSLGGDEGLDITQDMKPPKSLYIEVRCLKDYGEFEVDDGTSVLLKKNSQHFLPRWKCEQLIRQGVLEHILS | failed
